Experimental findings from PMC10680758 are described below.

The series addresses T1, eIF4G (unlabeled) (Saccharomyces cerevisiae, UniProt P39935 1-952).
T1 sequence: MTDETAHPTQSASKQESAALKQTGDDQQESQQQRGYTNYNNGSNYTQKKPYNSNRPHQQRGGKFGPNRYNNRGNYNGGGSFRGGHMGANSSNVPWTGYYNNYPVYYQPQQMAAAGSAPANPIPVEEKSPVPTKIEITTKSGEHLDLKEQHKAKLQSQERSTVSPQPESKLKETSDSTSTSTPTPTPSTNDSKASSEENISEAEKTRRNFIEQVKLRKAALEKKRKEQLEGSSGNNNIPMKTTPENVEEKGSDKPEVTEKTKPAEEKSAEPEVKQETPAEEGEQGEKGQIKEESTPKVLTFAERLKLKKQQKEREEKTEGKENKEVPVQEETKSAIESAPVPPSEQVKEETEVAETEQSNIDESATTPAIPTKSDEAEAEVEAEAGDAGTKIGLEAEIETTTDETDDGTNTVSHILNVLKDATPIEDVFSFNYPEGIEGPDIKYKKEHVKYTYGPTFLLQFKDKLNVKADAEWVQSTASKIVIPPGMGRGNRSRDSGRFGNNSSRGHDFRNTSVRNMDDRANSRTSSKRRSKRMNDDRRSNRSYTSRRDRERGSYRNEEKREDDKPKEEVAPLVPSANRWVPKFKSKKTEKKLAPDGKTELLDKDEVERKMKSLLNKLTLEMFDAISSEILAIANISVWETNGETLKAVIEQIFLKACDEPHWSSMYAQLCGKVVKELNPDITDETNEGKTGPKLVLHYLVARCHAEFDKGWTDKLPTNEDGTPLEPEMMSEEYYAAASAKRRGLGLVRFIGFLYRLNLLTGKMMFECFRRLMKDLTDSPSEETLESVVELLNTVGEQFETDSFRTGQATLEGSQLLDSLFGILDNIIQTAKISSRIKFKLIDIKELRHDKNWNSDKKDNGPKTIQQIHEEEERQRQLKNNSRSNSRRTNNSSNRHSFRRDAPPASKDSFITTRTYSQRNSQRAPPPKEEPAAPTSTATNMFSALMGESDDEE
Nature of the series: fluorescence anisotropy. On the technique in general: In fluorescence polarisation assays a small probe gives low polarisation when free and higher when bound to something large.

B1: rpl41a 51mer-FAM (ssRNA)
RNA: GGAGACCACAUCGAUUCAAUCGAAAUGAGAGCCAAGUGGAGAAAGAAGAGA
B1: the binding result was “binds”.
